Patent US20230391882A1 (NUMAB THERAPEUTICS, published 2023)
Changes are numbered by the printed parent chain. Read-outs that look alike come from different tables or passages of the source. Each block holds one binder with its values, some of them ahead of it.

How the values were obtained:
Assay in all cases: cell-based or functional assay
[1] = molecular target: T1, mesothelin (MSLN) on target cells (H226, MeT-5A) (UniProt Q13421 37-598, limits assumed)
[2] = molecular target: soluble mesothelin (sMSLN) (UniProt Q13421 296-580, limits assumed)
[3] = molecular target: T1, mesothelin (MSLN) on target cells …; remark: listed apart in the source
[4] = molecular target: T1, mesothelin (MSLN) on target cells …; remark: listed apart in the source
[5] = molecular target: T1, mesothelin (MSLN) on target cells …; remark: listed apart in the source
[6] = molecular target: T1, mesothelin (MSLN) on target cells …; remark: listed apart in the source
[7] = molecular target: T1, mesothelin (MSLN) on target cells …; remark: listed apart in the source
[8] = molecular target: T1, mesothelin (MSLN) on target cells …; remark: listed apart in the source
[9] = molecular target: T1, mesothelin (MSLN) on target cells …; remark: listed apart in the source
[10] = molecular target: T1, mesothelin (MSLN) on target cells …; remark: listed apart in the source
[11] = molecular target: T2, human CD137 on the transgenic NF-kB Jurkat reporter cell line (human, UniProt Q07011 24-255)
human PDL1 [12] = molecular target: T3, human PDL1 (human, UniProt Q9NZQ7 19-238, limits assumed)
[13] = molecular target: T2, human CD137 on the transgenic NF-kB …; remark: listed apart in the source
human PDL1 [14] = molecular target: T3, human PDL1; remark: listed apart in the source
[15] = molecular target: T2, human CD137 on the transgenic NF-kB …; remark: listed apart in the source
human PDL1 [16] = molecular target: T3, human PDL1; remark: listed apart in the source

EC50 (read off the curve); activated CD8+ cells (CD69+) with H226 cells, without sMSLN [8]: ~2 pM | EC50 (read off the curve); activated CD8+ cells (CD69+) with H226 cells, with 50 ng/ml sMSLN [9]: ~8 pM | EC50 (read off the curve); activated CD8+ cells (CD69+) with H226 cells, with 500 ng/ml sMSLN [10]: ~40 pM
B1: PRO2000 (biMSLNlow affinity x CD3 x hSA) (other)
chain 1: DIQMTQSPSSLSASVGDRVTITCQASQNIYSNLAWYQQKPGKAPKLLIYDASDLASGVPSRFSGSGSGTDFTLTISSLQPEDFATYYCQQVRSSSDIDNPFGTGTKVTVLGGGGGSGGGGSGGGGSGGGGSQVQLVESGGGLVQPGGSLRLSCAASGFSLSSYAMGWVRQAPGKGLEWIGYISTINNTYYASWAKGRFTISRDNSKNTVYLQMNSLRAEDTAVYYCAREIRSGWVDYGFSIWGQGTLVTVSSGGGGSGGGGSEVQLVESGGGLVQPGGSLRLSCAASGFSLSSYDMSWVRQAPGKGLAWIGASYASGPTYYASWAKGRFTISRDNSKNTVYLQMNSLRAEDTATYFCARGGWTGTSHSNIWGQGTLVTVSSGGGSGGGSEVQLVESGGGLVQPGGSLRLSCAASGFSFSSSYWICWVRQAPGKCLEWVGCVFTGDGTTYYASWAKGRFTISRDNSKNTVYLQMNSLRAEDTATYFCARPVSVYYYGMDLWGQGTLVTVSS
chain 2: DIQMTQSPSSLSASVGDRVTITCQASQNIYSNLAWYQQKPGKAPKLLIYDASDLASGVPSRFSGSGSGTDFTLTISSLQPEDFATYYCQQVRSSSDIDNPFGTGTKVTVLGGGGGSGGGGSGGGGSGGGGSQVQLVESGGGLVQPGGSLRLSCAASGFSLSSYAMGWVRQAPGKGLEWIGYISTINNTYYASWAKGRFTISRDNSKNTVYLQMNSLRAEDTAVYYCAREIRSGWVDYGFSIWGQGTLVTVSSGGGGSGGGGSDVVMTQSPSSLSASVGDRVTITCQASQIISSRSAWYQQKPGQPPKLLIYQASKLASGVPSRFSGSGSGTDFTLTISSLQPEDFATYYCQCTYIDSNFGAFGCGTKLTVLGGGSGGSDIQMTQSPSSLSASVGDRVTITCQSSQSVFSNNYLAWFQQKPGQSPKRLIYSASTLASGVPSRFSGSGSGTDFTLTISSLQPEDFATYYCLGSYACSSADCYVFGTGTKVTVLG
T-cell driven cytotoxicity assay: EC50 for killing high MSLN expressing target cells against EC50 for killing MeT-5A cells [1]: ≥ 25 fold | specific killing of high MSLN expressing H226 cells by PBMCs in the presence of human serum albumin; killing potency against that of PRO1872 [1]: 75 fold | decrease of potency of T-cell driven target cell killing in the presence of 500 ng/ml soluble MSLN [2]: 17 fold | increase of EC50 for killing high MSLN expressing target cells in the presence of 50 ng/ml sMSLN [2]: ≤ 6 fold | increase of EC50 for killing high MSLN expressing target cells in the presence of 500 ng/ml sMSLN [2]: ≤ 40 fold | EC50 (read off the curve); specific killing of H226 cells (high MSLN) [3]: ~0.07 pM | EC50 (read off the curve); specific killing of MeT-5A cells (low MSLN) [4]: ~100 pM | EC50 (read off the curve); specific killing of H226 cells, no sMSLN [5]: ~10 pM | EC50 (read off the curve); specific killing of H226 cells, in presence of 50 ng/ml sMSLN [6]: ~30 pM | EC50 (read off the curve); specific killing of H226 cells, in presence of 500 ng/ml sMSLN [7]: ~200 pM

EC50 (read off the curve); NF-kB reporter gene assay [11]: ~70 pM | IC50 (read off the curve); NFAT reporter gene assay, blocked ligand PD-1 (human PDL1 [12]): ~500 pM
B2: PRO1480 (38-27-A11 sc02 scDb-i/37-20-B03 sc09.1 scDb-o/19-01-H04 sc03 scFv) (other)
chain: DIQMTQSPASLSASVGDRVTITCQASQSIGTYLAWYQQKPGKPPKLLIYRAFILASGVPSRFSGSGSGTDFTLTISSLQPEDFATYYCQSNFYSDSTTIGPNAFGTGTKVTVLGGGGGSEVQLVESGGGLVQPGGSLRLSCAASGFSFSANYYPCWVRQAPGKGLEWIGCIYGGSSDITYDANWTKGRFTISRDNSKNTVYLQMNSLRAEDTAVYYCARSAWYSGWGGDLWGQGTLVTVSSGGGGSGGGGSGGGGSGGGGSIQMTQSPSSLSASVGDRVTITCQASQSISNRLAWYQQKPGKAPKLLIYSASTLASGVPSRFSGSGSGTDFTLTISSLQPEDFATYYCQSTYYGNDGNAFGTGTKVTVLGGGGGSEVQLVESGGGLVQPGGSLRLSCAASGFSFNSDYWIYWVRQAPGKGLEWIASIYGGSSGNTQYASWAQGRFTISRDNSKNTVYLQMNSLRAEDTAVYFCARGYVDYGGATDLWGQGTLVTVSSGGGGSGGGGSIQMTQSPSSLSASVGDRVTITCQSSESVYSNNQLSWYQQKPGQPPKLLIYDASDLASGVPSRFSGSGSGTDFTLTISSLQPEDFATYYCAGGFSSSSDTAFGGGTKLTVLGGGGGSGGGGSGGGGSGGGGSEVQLVESGGGLVQPGGSLRLSCAASGFSLSSNAMGWVRQAPGKGLEYIGIISVGGFTYYASWAKGRFTISRDNSKNTVYLQMNSLRAEDTATYFCARDRHGGDSSGAFYLWGQGTLVTVSS

EC50 (read off the curve); NF-kB reporter gene assay, rising part of the curve [15]: ~300 pM | IC50 (read off the curve); NFAT reporter gene assay, blocked ligand PD-1 (human PDL1 [16]): ~2000 pM
B4: PRO885 (38-02-A04 sc01 scDb-i/33-03-G02 sc01 scDb-o) (bispecific antibody)
chain: DIQMTQSPSSLSASVGDRVTITCQASQSINDYLAWYQQKPGKAPKLLIYKASTLASGVPSRFSGSGSGTDFTLTISSLQPEDFATYYCQQGYIITDIDNVFGTGTKVTVLGGGGGSQVQLQESGPGLVKPSETLSLTCKVSGFSFSNSYWICWIRQPPGKGLEWIGCTFVGSSDSTYYANWAKGRVTISVDSSKNQFSLKLSSVTAADTAVYYCARHPSDAVYGYANNLWGQGTLVTVSSGGGGSGGGGSGGGGSGGGGSIQMTQSPSSLSASVGDRVTITCQASQSINNVLAWYQQKPGKAPKLLIYRASTLASGVPSRFSGSGSGTDFTLTISSLQPEDFATYYCQSSYGNYGDFGTGTKVTVLGGGGGSQVQLQESGPGLVKPSETLSLTCKVSGFSFSSGYDMCWIRQPPGKGLEWIGCVVAGSVDITYYASWAKGRVTISVDSSKNQFSLKLSSVTAADTAVYYCARKDAYSDAFNLWGQGTLVTVSS

Continued, binder first:

B3: PRO1124 (38-02-A04 sc06 Full scDb-i/33-03-G02 sc01 scDb-o) (bispecific antibody)
chain: B4 chain with V140A, I154V, V190K, F197V, Y213F, I261L, A302P
EC50 (read off the curve); NF-kB reporter gene assay, rising part of the curve [13]: ~100 pM | IC50 (read off the curve); NFAT reporter gene assay, blocked ligand PD-1 (human PDL1 [14]): ~1000 pM

B5: PRO2566 (MATCH4) (other)
chain 1: AFELTQSPSSLSASVGDRVTITCQASESINSRLAWYQQKPGQPPKLLIYDASDLTSGVPSRFSGSGSGTDFTLTISSLQPEDFATYYCQGYGGSSTTTFGTGTKLTVLGGGGGSGGGGSGGGGSGGGGSEVQLVESGGGLVQPGGSLRLSCAASGFSLSSYAMNWVRQAPGKGLEWIGHINAGDIAYYATWAKGRFTISRDNSKNTVYLQMNSLRAEDTAVYFCARGAGGFSTGPFKLWGQGTLVTVSSGGGGSGGGGSEVQLVESGGGLVQPGGSLRLSCAASGFSLSSYDMSWVRQAPGKGLAWIGASYASGPTYYASWAKGRFTISRDNSKNTVYLQMNSLRAEDTATYFCARGGWTGTSHSNIWGQGTLVTVSSGGGSGGGSGGGSGQSQLVESGGGLVQPGGSLRLSCAVSGFSLSSYAMGWVRQAPGKCLEYIGYISKIGTTYYASWAKGRFTISKDNSKNTVYLQMNSLRAEDTAVYFCARGSSSGGYLDDGFDPWGQGTLVTVSS
chain 2: ALQMTQSPSSLSARVGDRVTIKCQASQSISNYLAWYQQKPGKPPKFLIYDASDLASGVPSRFSGSGSGRDFTLTISSLQPEDFATYYCQQVYDSNNVENVFGCGTKVTVLGGGGGSGGGGSGGGGSGGGGSQSQLVESGGGLVQPGGSLRLSCAVSGFSLSSYAMGWVRQAPGKCLEYIGYISKIGTTYYASWAKGRFTISKDNSKNTVYLQMNSLRAEDTAVYFCARGSSSGGYLDDGFDPWGQGTLVTVSSGGGGSGGGGSALQMTQSPSSLSARVGDRVTIKCQASQSISNYLAWYQQKPGKPPKFLIYDASDLASGVPSRFSGSGSGRDFTLTISSLQPEDFATYYCQQVYDSNNVENVFGCGTKVTVLGGGSGGSGGSGGSGDIQMTQSPSSLSASVGDRVTITCQSSQSVFSNNYLAWFQQKPGQSPKRLIYSASTLASGVPSRFSGSGSGTDFTLTISSLQPEDFATYYCLGSYACSSADCYVFGTGTKVTVLG
T-cell driven cytotoxicity assay: EC50 for killing high MSLN expressing target cells against EC50 for killing MeT-5A cells [1]: ≥ 25 fold | increase of EC50 for killing high MSLN expressing target cells in the presence of 50 ng/ml sMSLN [2]: ≤ 6 fold | increase of EC50 for killing high MSLN expressing target cells in the presence of 500 ng/ml sMSLN [2]: ≤ 40 fold

B6: PRO2567 (MATCH4) (other)
chain 1: B5 chain 1
chain 2: ALQMTQSPSSLSARVGDRVTIKCQASQSISNYLAWYQQKPGKPPKFLIYDASDLASGVPSRFSGSGSGRDFTLTISSLQPEDFATYYCQQVYDSNNVENVFGCGTKVTVLGGGGGSGGGGSGGGGSGGGGSQSQLVESGGGLVQPGGSLRLSCAVSGFSLSSYAMGWVRQAPGKCLEYIGYISKIGTTYYASWAKGRFTISKDNSKNTVYLQMNSLRAEDTAVYFCARGSSSGGYLDDGFDPWGQGTLVTVSSGGGGSGGGGSALQMTQSPSSLSARVGDRVTIKCQASQSISNYLAWYQQKPGKPPKFLIYDASDLASGVPSRFSGSGSGRDFTLTISSLQPEDFATYYCQQVYDSNNVENVFGCGTKVTVLGGGSGGSDIQMTQSPSSLSASVGDRVTITCQSSQSVFSNNYLAWFQQKPGQSPKRLIYSASTLASGVPSRFSGSGSGTDFTLTISSLQPEDFATYYCLGSYACSSADCYVFGTGTKVTVLG
T-cell driven cytotoxicity assay: EC50 for killing high MSLN expressing target cells against EC50 for killing MeT-5A cells [1]: ≥ 25 fold | increase of EC50 for killing high MSLN expressing target cells in the presence of 50 ng/ml sMSLN [2]: ≤ 6 fold | increase of EC50 for killing high MSLN expressing target cells in the presence of 500 ng/ml sMSLN [2]: ≤ 40 fold
